Read-outs that look alike come from different tables or passages of the source.
Tests used:
[1] = Co-formulation study of ectodomain-based traps with incretin mimetics (monomer content by SEC / RP-HPLC, integrity, stability); format: physicochemical; settings: retatrutide formulations, 20 mM NaPO4, glycine, sucrose, histidine pH 7.5
Method: In each case, the following parameters were assessed: a) monomer content (size exclusion chromatography), b) activin A and GDF-8 neutralization (cell-based assays [CBAs]), c) activin A binding (ELISA), d) GLP-1 receptor binding (ELISA).
In each case, the following parameters were assessed: a) monomer content (size exclusion chromatography), b) activin A and GDF-8 neutralization (cell-based assays [CBAs]), and c) GLP-1 receptor activation (CBA).
Given that protein aggregation can be indicative of reduced conformational stability and decreased activity, Size-Exclusion Chromatography-High Performance Liquid Chromatography (SEC-HPLC) was used to determine the purity of each ActRIIB-ECD construct. This method measured the percentage of intact monomeric species as well as the presence of aggregates and/or degradation products.
In some instances, the method used to assess the purity of an agent was based on a reversed-phase high-performance liquid chromatography (RP-HPLC) setup with a C18 column. The mobile phases consisted of acetonitrile with 0.1% formic acid (organic phase) and water with 0.1% formic acid (aqueous phase). […] Formic acid anions form an ion pair with positively charged peptides, increasing their hydrophobicity and therefore their retention time. Detection was performed using a UV detector, at 280 nm.

[2] = biological target: T1, GIP receptor (GIPR) on CHO-K1 cells stably overexpressing GIPR (UniProt P48546); test: cell-based or functional assay
T1 sequence (looked up): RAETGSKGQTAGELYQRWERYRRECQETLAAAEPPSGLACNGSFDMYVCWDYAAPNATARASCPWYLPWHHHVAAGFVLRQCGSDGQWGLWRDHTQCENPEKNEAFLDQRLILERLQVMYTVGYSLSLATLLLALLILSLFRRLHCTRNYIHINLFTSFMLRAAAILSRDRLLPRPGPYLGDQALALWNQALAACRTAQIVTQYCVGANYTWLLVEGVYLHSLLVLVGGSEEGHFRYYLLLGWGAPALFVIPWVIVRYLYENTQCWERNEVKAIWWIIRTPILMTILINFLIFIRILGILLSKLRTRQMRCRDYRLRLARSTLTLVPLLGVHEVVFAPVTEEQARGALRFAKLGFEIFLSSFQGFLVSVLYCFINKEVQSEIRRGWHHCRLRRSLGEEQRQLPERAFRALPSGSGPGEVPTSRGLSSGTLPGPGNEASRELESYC

[3] = biological target: GLP-1 receptor (GLP-1R) on CHO-K1 cells stably overexpressing GLP-1R (UniProt P43220); test: cell-based or functional assay
Sequence of GLP-1 receptor (GLP-1R) on CHO-K1 cells stably overexpressing GLP-1R (P43220 24-463 limits assumed): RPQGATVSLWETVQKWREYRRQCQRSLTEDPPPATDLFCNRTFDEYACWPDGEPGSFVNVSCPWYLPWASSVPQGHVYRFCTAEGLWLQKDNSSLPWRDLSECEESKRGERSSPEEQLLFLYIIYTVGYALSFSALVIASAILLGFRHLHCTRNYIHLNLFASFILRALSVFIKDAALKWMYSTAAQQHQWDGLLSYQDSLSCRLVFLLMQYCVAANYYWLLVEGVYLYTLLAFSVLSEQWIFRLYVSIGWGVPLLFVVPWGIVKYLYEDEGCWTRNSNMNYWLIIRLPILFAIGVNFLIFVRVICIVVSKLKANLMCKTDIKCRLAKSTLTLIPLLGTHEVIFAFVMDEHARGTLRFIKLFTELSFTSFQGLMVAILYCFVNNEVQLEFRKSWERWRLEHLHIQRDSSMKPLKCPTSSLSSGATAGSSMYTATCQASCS

[4] = biological target: T1, GIP receptor (GIPR) on CHO-K1 cells stably overexpressing GIPR; test: cell-based or functional assay; remark: listed apart in the source
[5] = biological target: GLP-1 receptor (GLP-1R) on CHO-K1 cells stably overexpressing GLP-1R (UniProt P43220); test: cell-based or functional assay; remark: listed apart in the source
DIO mice = test: Body composition in high fat diet mice, alone and in combination with incretin mimetics; format: in vivo; settings: for Fat mass (% change from baseline) / Lean mass (% change from baseline): as E44, NMR
Method: Experiments were performed in vivo to investigate the potential for additive or synergistic effects between exemplary ActRIIB-ECD polypeptide constructs and incretin mimetics.

CC[C@H](C)[C@H](NC(=O)[C@H](Cc1ccccc1)NC(=O)[C@H](C)NC(=O)C(C)(C)NC(=O)[C@H](CCC(N)=O)NC(=O)[C@H](C)NC(=O)[C@H](CCCCNC(=O)COCCOCCNC(=O)CC[C@H](NC(=O)CCCCCCCCCCCCCCCCCCC(=O)O)C(=O)O)NC(=O)[C@H](CCCCN)NC(=O)[C@H](CC(=O)O)NC(=O)[C@H](CC(C)C)NC(=O)[C@](C)(CC(C)C)NC(=O)[C@@H](NC(=O)[C@H](CO)NC(=O)[C@H](Cc1ccc(O)cc1)NC(=O)[C@H](CC(=O)O)NC(=O)[C@H](CO)NC(=O)[C@@H](NC(=O)[C@H](Cc1ccccc1)NC(=O)[C@@H](NC(=O)CNC(=O)[C@H](CCC(N)=O)NC(=O)C(C)(C)NC(=O)[C@@H](N)Cc1ccc(O)cc1)[C@@H](C)O)[C@@H](C)O)[C@@H](C)CC)C(=O)N[C@@H](CCC(=O)O)C(=O)N[C@@H](Cc1ccc(O)cc1)C(=O)N[C@@H](CC(C)C)C(=O)N[C@@H](CC(C)C)C(=O)N[C@@H](CCC(=O)O)C(=O)NCC(=O)NCC(=O)N1CCC[C@H]1C(=O)N[C@@H](CO)C(=O)N[C@@H](CO)C(=O)NCC(=O)N[C@@H](C)C(=O)N1CCC[C@H]1C(=O)N1CCC[C@H]1C(=O)N1CCC[C@H]1C(=O)N[C@@H](CO)C(N)=O [Retatrutide alone]
Monomer Content (%) Retatrutide ([1]; D 0): 100%
Monomer Content (%) Retatrutide ([1]; D 7, 2-8° C.): 100%
Monomer Content (%) Retatrutide ([1]; D 7, RT): 100%
Monomer Content (%) Retatrutide ([1]; D 14, 2-8° C.): 100%
Monomer Content (%) Retatrutide ([1]; D 14, RT): 100%
Monomer Content (%) Retatrutide ([1]; D 28, 2-8° C.): 100%
Monomer Content (%) Retatrutide ([1]; D 28, RT): 100%
Monomer Content (%) Retatrutide ([1]; D 56, 2-8° C.): 100%
Monomer Content (%) Retatrutide ([1]; D 56, RT): 100%

retatrutide (peptide)
CBA potency GIPR; P1372 + retatrutide; D 0 [2]: 0.94 pM
CBA potency GIPR; P1372 + retatrutide; D 7 2-8°C [2]: 0.98 pM
CBA potency GIPR; P1372 + retatrutide; D 7 RT [2]: 0.98 pM
CBA potency GIPR; P1372 + retatrutide; D 14 2-8°C [2]: 1.1 pM
CBA potency GIPR; P1372 + retatrutide; D 14 RT [2]: 0.76 pM
CBA potency GIPR; P1372 + retatrutide; D 28 2-8°C [2]: 1 pM
CBA potency GIPR; P1372 + retatrutide; D 28 RT [2]: 0.84 pM
CBA potency GIPR; P1372 + retatrutide; D 56 2-8°C [2]: 0.85 pM
CBA potency GIPR; P1372 + retatrutide; D 56 RT [2]: 0.75 pM
CBA potency GIPR; Retatrutide alone; D 0 [2]: 0.74 pM
CBA potency GIPR; Retatrutide alone; D 7 2-8°C [2]: 1 pM
CBA potency GIPR; Retatrutide alone; D 7 RT [2]: 0.87 pM
CBA potency GIPR; Retatrutide alone; D 14 2-8°C [2]: 1 pM
CBA potency GIPR; Retatrutide alone; D 14 RT [2]: 1.2 pM
CBA potency GIPR; Retatrutide alone; D 28 2-8°C [2]: 1.1 pM
CBA potency GIPR; Retatrutide alone; D 28 RT [2]: 1.1 pM
CBA potency GIPR; Retatrutide alone; D 56 2-8°C [2]: 0.84 pM
CBA potency GIPR; Retatrutide alone; D 56 RT [2]: 0.82 pM
CBA potency GLP-1R; P1372 + retatrutide; D 0 [3]: 3 pM
CBA potency GLP-1R; P1372 + retatrutide; D 7 2-8°C [3]: 2 pM
CBA potency GLP-1R; P1372 + retatrutide; D 7 RT [3]: 1.8 pM
CBA potency GLP-1R; P1372 + retatrutide; D 14 2-8°C [3]: 4.1 pM
CBA potency GLP-1R; P1372 + retatrutide; D 14 RT [3]: 3.3 pM
CBA potency GLP-1R; P1372 + retatrutide; D 28 2-8°C [3]: 2.9 pM
CBA potency GLP-1R; P1372 + retatrutide; D 28 RT [3]: 2.1 pM
CBA potency GLP-1R; P1372 + retatrutide; D 56 2-8°C [3]: 2.3 pM
CBA potency GLP-1R; P1372 + retatrutide; D 56 RT [3]: 2.3 pM
CBA potency GLP-1R; Retatrutide alone; D 0 [3]: 3 pM
CBA potency GLP-1R; Retatrutide alone; D 7 2-8°C [3]: 1.8 pM
CBA potency GLP-1R; Retatrutide alone; D 7 RT [3]: 2.5 pM
CBA potency GLP-1R; Retatrutide alone; D 14 2-8°C [3]: 3.1 pM
CBA potency GLP-1R; Retatrutide alone; D 14 RT [3]: 5.6 pM
CBA potency GLP-1R; Retatrutide alone; D 28 2-8°C [3]: 2.7 pM
CBA potency GLP-1R; Retatrutide alone; D 28 RT [3]: 2.7 pM
CBA potency GLP-1R; Retatrutide alone; D 56 2-8°C [3]: 2.1 pM
CBA potency GLP-1R; Retatrutide alone; D 56 RT [3]: 1.9 pM

tirzepatide (peptide)
CBA potency GIPR; P1372 + tirzepatide; D 0 [2]: 1.5 pM
CBA potency GIPR; P1372 + tirzepatide; D 7 2-8°C [2]: 1.7 pM
CBA potency GIPR; P1372 + tirzepatide; D 7 RT [2]: 2.1 pM
CBA potency GIPR; P1372 + tirzepatide; D 14 2-8°C [2]: 1.5 pM
CBA potency GIPR; P1372 + tirzepatide; D 14 RT [2]: 1.8 pM
CBA potency GIPR; P1372 + tirzepatide; D 28 2-8°C [2]: 2 pM
CBA potency GIPR; P1372 + tirzepatide; D 28 RT [2]: 2.8 pM
CBA potency GIPR; P1372 + tirzepatide; D 56 2-8°C [2]: 1.6 pM
CBA potency GIPR; P1372 + tirzepatide; D 56 RT [2]: 1.7 pM
CBA potency GIPR; Tirzepatide alone; D 0 [2]: 1.6 pM
CBA potency GIPR; Tirzepatide alone; D 7 2-8°C [2]: 2.8 pM
CBA potency GIPR; Tirzepatide alone; D 7 RT [2]: 2.8 pM
CBA potency GIPR; Tirzepatide alone; D 14 2-8°C [2]: 2.2 pM
CBA potency GIPR; Tirzepatide alone; D 14 RT [2]: 1.7 pM
CBA potency GIPR; Tirzepatide alone; D 28 2-8°C [2]: 2.2 pM
CBA potency GIPR; Tirzepatide alone; D 28 RT [2]: 2.1 pM
CBA potency GIPR; Tirzepatide alone; D 56 2-8°C [2]: 1.5 pM
CBA potency GIPR; Tirzepatide alone; D 56 RT [2]: 1.5 pM
CBA potency GLP-1R; P1372 + tirzepatide; D 0 [3]: 9.3 pM
CBA potency GLP-1R; P1372 + tirzepatide; D 7 2-8°C [3]: 13 pM
CBA potency GLP-1R; P1372 + tirzepatide; D 7 RT [3]: 12 pM
CBA potency GLP-1R; P1372 + tirzepatide; D 14 RT [3]: 13 pM
CBA potency GLP-1R; P1372 + tirzepatide; D 28 2-8°C [3]: 14 pM
CBA potency GLP-1R; P1372 + tirzepatide; D 28 RT [3]: 13 pM
CBA potency GLP-1R; P1372 + tirzepatide; D 56 2-8°C [3]: 7.4 pM
CBA potency GLP-1R; P1372 + tirzepatide; D 56 RT [3]: 7.7 pM
CBA potency GLP-1R; Tirzepatide alone; D 0 [3]: 11 pM
CBA potency GLP-1R; Tirzepatide alone; D 7 2-8°C [3]: 11 pM
CBA potency GLP-1R; Tirzepatide alone; D 7 RT [3]: 13 pM
CBA potency GLP-1R; Tirzepatide alone; D 14 2-8°C [3]: 17 pM
CBA potency GLP-1R; Tirzepatide alone; D 14 RT [3]: 23 pM
CBA potency GLP-1R; Tirzepatide alone; D 28 2-8°C [3]: 14 pM
CBA potency GLP-1R; Tirzepatide alone; D 28 RT [3]: 12 pM
CBA potency GLP-1R; Tirzepatide alone; D 56 2-8°C [3]: 7 pM
CBA potency GLP-1R; Tirzepatide alone; D 56 RT [3]: 6.7 pM
CBA potency GIPR; P1372 + tirzepatide; D 0 [4]: 1.3 pM
CBA potency GIPR; P1372 + tirzepatide; D 7 2-8°C [4]: 1 pM
CBA potency GIPR; P1372 + tirzepatide; D 7 RT [4]: 0.99 pM
CBA potency GIPR; P1372 + tirzepatide; D 14 2-8°C [4]: 0.98 pM
CBA potency GIPR; P1372 + tirzepatide; D 14 RT [4]: 1 pM
CBA potency GIPR; P1372 + tirzepatide; D 28 2-8°C [4]: 1.3 pM
CBA potency GIPR; P1372 + tirzepatide; D 28 RT [4]: 1.5 pM
CBA potency GIPR; P1372 + tirzepatide; D 56 2-8°C [4]: 1.9 pM
CBA potency GIPR; Tirzepatide alone; D 0 [4]: 1.5 pM
CBA potency GIPR; Tirzepatide alone; D 7 2-8°C [4]: 1.1 pM
CBA potency GIPR; Tirzepatide alone; D 7 RT [4]: 1.2 pM
CBA potency GIPR; Tirzepatide alone; D 14 2-8°C [4]: 0.84 pM
CBA potency GIPR; Tirzepatide alone; D 14 RT [4]: 0.82 pM
CBA potency GIPR; Tirzepatide alone; D 28 2-8°C [4]: 1.6 pM
CBA potency GIPR; Tirzepatide alone; D 28 RT [4]: 1.4 pM
CBA potency GIPR; Tirzepatide alone; D 56 2-8°C [4]: 1.9 pM
CBA potency GIPR; Tirzepatide alone; D 56 RT [4]: 2 pM
CBA potency GLP-1R; P1372 + tirzepatide; D 0 [5]: 5.3 pM
CBA potency GLP-1R; P1372 + tirzepatide; D 7 2-8°C [5]: 3.2 pM
CBA potency GLP-1R; P1372 + tirzepatide; D 7 RT [5]: 3.3 pM
CBA potency GLP-1R; P1372 + tirzepatide; D 14 2-8°C [5]: 2.9 pM
CBA potency GLP-1R; P1372 + tirzepatide; D 14 RT [5]: 2.8 pM
CBA potency GLP-1R; P1372 + tirzepatide; D 28 2-8°C [5]: 5.5 pM
CBA potency GLP-1R; P1372 + tirzepatide; D 28 RT [5]: 5.4 pM
CBA potency GLP-1R; P1372 + tirzepatide; D 56 2-8°C [5]: 9.3 pM
CBA potency GLP-1R; P1372 + tirzepatide; D 56 RT [5]: 10 pM
CBA potency GLP-1R; Tirzepatide alone; D 0 [5]: 4.3 pM
CBA potency GLP-1R; Tirzepatide alone; D 7 2-8°C [5]: 4.6 pM
CBA potency GLP-1R; Tirzepatide alone; D 7 RT [5]: 3.7 pM
CBA potency GLP-1R; Tirzepatide alone; D 14 2-8°C [5]: 2.4 pM
CBA potency GLP-1R; Tirzepatide alone; D 14 RT [5]: 3.3 pM
CBA potency GLP-1R; Tirzepatide alone; D 28 2-8°C [5]: 5.6 pM
CBA potency GLP-1R; Tirzepatide alone; D 28 RT [5]: 5 pM
CBA potency GLP-1R; Tirzepatide alone; D 56 2-8°C [5]: 8.3 pM
CBA potency GLP-1R; Tirzepatide alone; D 56 RT [5]: 8.4 pM

tirzepatide [reference compound]
Body weight (% change from baseline) (DIO mice; DIO mice, 21 days s.c., P1307 20 mg/kg weekly, P1229 40 mg/kg twice weekly, semaglutide 40 μg/kg daily, tirzepatide 45 μg/kg daily, alone or combined): −26.8%
visceral, epididymal, pericardial, peri-renal, and retroperitoneal white adipose tissue weights (DIO mice; DIO mice, D21): significantly decreased all white adipose tissue weights
gastrocnemius and tibialis anterior weights (DIO mice; DIO mice, D21, P1229 with or without caloric restriction): no significant effect on muscle weights
Fat mass (% change from baseline) (DIO mice): −46.2%
Lean mass (% change from baseline) (DIO mice): −14.5%
Fat mass (% change from baseline) (DIO mice; listed as tirzepatide): −46.2%
Lean mass (% change from baseline) (DIO mice; listed as tirzepatide): −14.5%
